Results on 1 molecule are retold here after publication PMC4624489.

The target of one data set is Hfq:D9A-S38W (Escherichia coli, UniProt P0A6X3 1-102, D9A;S38W). Kind of data set: tryptophan fluorescence quenching.
Another data set deals with Hfq:E18A-S38W (Escherichia coli, UniProt P0A6X3 1-102, E18A;S38W). Kind of data set: tryptophan fluorescence quenching.

Turning to GUGGUCAGUCGAGUGG (ssRNA) [oligo C], the binding result with Hfq:D9A-S38W and with Hfq:E18A-S38W was “binds” each time.
